These results are taken from the supplement of paper PMC5998384.

In data set [1] the test system is HeLa Kyoto. The data set can be described thus: solubility in G1/S (NP-40 vs SDS abundance) (log2 ratio); higher = more soluble. The note with it: cell cycle stage: G1/S.
Data set [2] deals with HeLa Kyoto. The data set is described as follows: thermal stability score vs G1/S (z-score of summed log2 fold changes over temperatures); higher = more thermally stable than in G1/S.
Data set [3] has as its system HeLa Kyoto. The data set is described as follows: solubility change mitosis vs G1/S (difference of NP-40 vs SDS log2 ratios) (log2 ratio difference); higher = more soluble in mitosis.
Data set [4] concerns HeLa Kyoto. The data set is described as follows: melting temperature (median over replicates), in situ; higher = more thermally stable.
Where [5] appears, read: cell cycle stage: early G1 (4.5 h after nocodazole release).
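Wherever melting temperature (median over replicates), in situ is given: HeLa Kyoto cells synchronized by double thymidine or nocodazole block, proteins quantified by TMT10plex mass spectrometry, three independent biological replicates.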
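Wherever solubility change mitosis vs G1/S (difference of NP-40 vs SDS log2 ratios) is given: synchronized HeLa Kyoto cells (double thymidine block for G1/S, nocodazole release for mitosis), protein amounts in NP-40 versus SDS lysates quantified by mass spectrometry, three biological replicates.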
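Wherever solubility in G1/S (NP-40 vs SDS abundance) is given: HeLa Kyoto cells arrested at G1/S by double thymidine block, proteins quantified by TMT10plex mass spectrometry in mild NP-40 versus SDS extracts, three biological replicates.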
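Wherever thermal stability score vs G1/S (z-score of summed log2 fold changes over temperatures) is given: synchronized HeLa Kyoto cells, proteins quantified by TMT10plex mass spectrometry, three biological replicates, mitosis taken 0.5 h after nocodazole release, G1/S directly after double thymidine block.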

For the sequence “MELSDANLQTLTEYLKKTLDPDPAIRRPAEKFLESVEGNQNYPLLLLTLLEKSQDNVIKVCASVTFKNYIKRNWRIVEDEPNKICEADRVAIKANIVHLMLSSPEQIQKQLSDAISIIGREDFPQKWPDLLTEMVNRFQSGDFHVINGVLRTAHSLFKRYRHEFKSNELWTEIKLVLDAFALPLTNLFKATIELCSTHANDASALRILFSSLILISKLFYSLNFQDLPEFFEDNMETWMNNFHTLLTLDNKLLQTDDEEEAGLLELLKSQICDNAALYAQKYDEEFQRYLPRFVTAIWNLLVTTGQEVKYDLLVSNAIQFLASVCERPHYKNLFEDQNTLTSICEKVIVPNMEFRAADEEAFEDNSEEYIRRDLEGSDIDTRRRAACDLVRGLCKFFEGPVTGIFSGYVNSMLQEYAKNPSVNWKHKDAAIYLVTSLASKAQTQKHGITQANELVNLTEFFVNHILPDLKSANVNEFPVLKADGIKYIMIFRNQVPKEHLLVSIPLLINHLQAESIVVHTYAAHALERLFTMRGPNNATLFTAAEIAPFVEILLTNLFKALTLPGSSENEYIMKAIMRSFSLLQEAIIPYIPTLITQLTQKLLAVSKNPSKPHFNHYMFEAICLSIRITCKANPAAVVNFEEALFLVFTEILQNDVQEFIPYVFQVMSLLLETHKNDIPSSYMALFPHLLQPVLWERTGNIPALVRLLQAFLERGSNTIASAAADKIPGLLGVFQKLIASKANDHQGFYLLNSIIEHMPPESVDQYRKQIFILLFQRLQNSKTTKFIKSFLVFINLYCIKYGALALQEIFDGIQPKMFGMVLEKIIIPEIQKVSGNVEKKICAVGITKLLTECPPMMDTEYTKLWTPLLQSLIGLFELPEDDTIPDEEHFIDIEDTPGYQTAFSQLAFAGKKEHDPVGQMVNNPKIHLAQSLHKLSTACPGRVPSMVSTSLNAEALQYLQGYLQAASVTLL [CSE1L]”, the “solubility in G1/S (log2)” value in the data set on HeLa Kyoto [1] is -0.0863. Further, the thermal stability score with HeLa Kyoto [2] (setting [5]) stood at 1.44; in the data set on HeLa Kyoto [2] (cell cycle stage: mitosis), 2.55. For the same sequence, in the data set on HeLa Kyoto [3], the “solubility change mitosis (log2)” value is -0.225. The melting temperature in the data set with HeLa Kyoto [4] (cell cycle stage: G1/S) came out at 50.4 °C; with HeLa Kyoto [4] (cell cycle stage: mitosis), 49.5 °C.
Take “MAGKSSLFKVILLGDGGVGKSSLMNRYVTNKFDTQLFHTIGVEFLNKDLEVDGHFVTMQIWDTAGQERFRSLRTPFYRGSDCCLLTFSVDDSQSFQNLSNWKKEFIYYADVKEPESFPFVILGNKIDISERQVSTEEAQAWCRDNGDYPYFETSAKDATNVAAAFEEAVRRVLATEDRSDHLIQTDTVNLHRKPKPSSSCC [RAB9A]”: in the data set with HeLa Kyoto [1], the “solubility in G1/S (log2)” value was -0.0893. Further, the thermal stability score is -1.81 in the data set on HeLa Kyoto [2] (setting [5]) and -3.52 with HeLa Kyoto [2] (cell cycle stage: mitosis). Moreover, in the data set on HeLa Kyoto [3], the “solubility change mitosis (log2)” value is -0.207. In addition, the melting temperature is 54.3 °C with HeLa Kyoto [4] (cell cycle stage: G1/S) and 54.2 °C in the data set with HeLa Kyoto [4] (cell cycle stage: mitosis).
For the sequence “MEMKKKINLELRNRSPEEVTELVLDNCLCVNGEIEGLNDTFKELEFLSMANVELSSLARLPSLNKLRKLELSDNIISGGLEVLAEKCPNLTYLNLSGNKIKDLSTVEALQNLKNLKSLDLFNCEITNLEDYRESIFELLQQITYLDGFDQEDNEAPDSEEEDDEDGDEDDEEEEENEAGPPEGYEEEEEEEEEEDEDEDEDEDEAGSELGEGEEEVGLSYLMKEEIQDEEDDDDYVEEGEEEEEEEEGGLRGEKRKRDAEDDGEEEDD [ANP32E]”, in the data set on HeLa Kyoto [1], the “solubility in G1/S (log2)” value is -0.46. In addition, the figures for the thermal stability score with HeLa Kyoto [2] (setting [5]) and with HeLa Kyoto [2] (cell cycle stage: mitosis) were 2.17 and 4.82, respectively. Moreover, the “solubility change mitosis (log2)” value with HeLa Kyoto [3] came out at 0.1. For the same sequence, the melting temperature in the data set on HeLa Kyoto [4] (cell cycle stage: G1/S) stood at 46.5 °C; in the data set on HeLa Kyoto [4] (cell cycle stage: mitosis) it was 50.1 °C.
“MANEEDDPVVQEIDVYLAKSLAEKLYLFQYPVRPASMTYDDIPHLSAKIKPKQQKVELEMAIDTLNPNYCRSKGEQIALNVDGACADETSTYSSKLMDKQTFCSSQTTSNTSRYAAALYRQGELHLTPLHGILQLRPSFSYLDKADAKHREREAANEAGDSSQDEAEDDVKQITVRFSRPESEQARQRRVQSYEFLQKKHAEEPWVHLHYYGLRDSRSEHERQYLLCPGSSGVENTELVKSPSEYLMMLMPPSQEEEKDKPVAPSNVLSMAQLRTLPLADQIKILMKNVKVMPFANLMSLLGPSIDSVAVLRGIQKVAMLVQGNWVVKSDILYPKDSSSPHSGVPAEVLCRGRDFVMWKFTQSRWVVRKEVATVTKLCAEDVKDFLEHMAVVRINKGWEFILPYDGEFIKKHPDVVQRQHMLWTGIQAKLEKVYNLVKETMPKKPDAQSGPAGLVCGDQRIQVAKTKAQQNHALLERELQRRKEQLRVPAVPPGVRIKEEPVSEEGEEDEEQEAEEEPMDTSPSGLHSKLANGLPLGRAAGTDSFNGHPPQGCASTPVARELKAFVEATFQRQFVLTLSELKRLFNLHLASLPPGHTLFSGISDRMLQDTVLAAGCKQILVPFPPQTAASPDEQKVFALWESGDMSDQHRQVLLEIFSKNYRVRRNMIQSRLTQECGEDLSKQEVDKVLKDCCVSYGGMWYLKGTVQS [POLR3E]”: the “solubility in G1/S (log2)” value in the data set with HeLa Kyoto [1] was determined as 0.128. For the same sequence, the thermal stability score was determined as 0.337 in the data set with HeLa Kyoto [2] (setting [5]) and 0.588 with HeLa Kyoto [2] (cell cycle stage: mitosis). Moreover, the “solubility change mitosis (log2)” value in the data set on HeLa Kyoto [3] was -0.0491. In addition, the melting temperature in the data set with HeLa Kyoto [4] (cell cycle stage: G1/S) was 49.8 °C; with HeLa Kyoto [4] (cell cycle stage: mitosis), 49.9 °C.
For “MAQEVSEYLSQNPRVAAWVEALRCDGETDKHWRHRRDFLLRNAGDLAPAGGAASASTDEAADAESGTRNRQLQQLISFSMAWANHVFLGCRYPQKVMDKILSMAEGIKVTDAPTYTTRDELVAKVKKRGISSSNEGVEEPSKKRVIEGKNSSAVEQDHAKTSAKTERASAQQENSSTCIGSAIKSESGNSARSSGISSQNSSTSDGDRSVSSQSSSSVSSQVTTAGSGKASEAEAPDKHGSASFVSLLKSSVNSHMTQSTDSRQQSGSPKKSALEGSSASASQSSSEIEVPLLGSSGSSEVELPLLSSKPSSETASSGLTSKTSSEASVSSSVAKNSSSSGTSLLTPKSSSSTNTSLLTSKSTSQVAASLLASKSSSQTSGSLVSKSTSLASVSQLASKSSSQTSTSQLPSKSTSQSSESSVKFSCKLTNEDVKQKQPFFNRLYKTVAWKLVAVGGFSPNVNHGELLNAAIEALKATLDVFFVPLKELADLPQNKSSQESIVCELRCKSVYLGTGCGKSKENAKAVASREALKLFLKKKVVVKICKRKYRGSEIEDLVLLDEESRPVNLPPALKHPQELL [CDKN2AIP]”, the “solubility in G1/S (log2)” value in the data set with HeLa Kyoto [1] was -0.0572. In addition, the figures for the thermal stability score with HeLa Kyoto [2] (setting [5]) and with HeLa Kyoto [2] (cell cycle stage: mitosis) were 1.13 and 1.43, respectively. Further, the “solubility change mitosis (log2)” value in the data set with HeLa Kyoto [3] is -0.0367. Further, the melting temperature with HeLa Kyoto [4] (cell cycle stage: G1/S) turned out to be 50.2 °C; in the data set on HeLa Kyoto [4] (cell cycle stage: mitosis), 50.8 °C.
Regarding “MADNLPTEFDVVIIGTGLPESILAAACSRSGQRVLHIDSRSYYGGNWASFSFSGLLSWLKEYQQNNDIGEESTVVWQDLIHETEEAITLRKKDETIQHTEAFCYASQDMEDNVEEIGALQKNPSLGVSNTFTEVLDSALPEESQLSYFNSDEMPAKHTQKSDTEISLEVTDVEESVEKEKYCGDKTCMHTVSDKDGDKDESKSTVEDKADEPIRNRITYSQIVKEGRRFNIDLVSKLLYSQGLLIDLLIKSDVSRYVEFKNVTRILAFREGKVEQVPCSRADVFNSKELTMVEKRMLMKFLTFCLEYEQHPDEYQAFRQCSFSEYLKTKKLTPNLQHFVLHSIAMTSESSCTTIDGLNATKNFLQCLGRFGNTPFLFPLYGQGEIPQGFCRMCAVFGGIYCLRHKVQCFVVDKESGRCKAIIDHFGQRINAKYFIVEDSYLSEETCSNVQYKQISRAVLITDQSILKTDLDQQTSILIVPPAEPGACAVRVTELCSSTMTCMKDTYLVHLTCSSSKTAREDLESVVKKLFTPYTETEINEEELTKPRLLWALYFNMRDSSGISRSSYNGLPSNVYVCSGPDCGLGNEHAVKQAETLFQEIFPTEEFCPPPPNPEDIIFDGDDKQPEAPGTNNVVMAKLESSEESKNLESPEKHLQN [CHML]”, in the data set with HeLa Kyoto [1], the “solubility in G1/S (log2)” value was -0.076. For the same sequence, the values for the thermal stability score in the data set on HeLa Kyoto [2] (setting [5]) and with HeLa Kyoto [2] (cell cycle stage: mitosis) were -0.83 and -1.67, respectively. For the same sequence, the “solubility change mitosis (log2)” value in the data set with HeLa Kyoto [3] is -0.178. The melting temperature with HeLa Kyoto [4] (cell cycle stage: G1/S) amounted to 54 °C; in the data set with HeLa Kyoto [4] (cell cycle stage: mitosis) it was 53.7 °C.
Take “MDSVEKGAATSVSNPRGRPSRGRPPKLQRNSRGGQGRGVEKPPHLAALILARGGSKGIPLKNIKHLAGVPLIGWVLRAALDSGAFQSVWVSTDHDEIENVAKQFGAQVHRRSSEVSKDSSTSLDAIIEFLNYHNEVDIVGNIQATSPCLHPTDLQKVAEMIREEGYDSVFSVVRRHQFRWSEIQKGVREVTEPLNLNPAKRPRRQDWDGELYENGSFYFAKRHLIEMGYLQGGKMAYYEMRAEHSVDIDVDIDWPIAEQRVLRYGYFGKEKLKEIKLLVCNIDGCLTNGHIYVSGDQKEIISYDVKDAIGISLLKKSGIEVRLISERACSKQTLSSLKLDCKMEVSVSDKLAVVDEWRKEMGLCWKEVAYLGNEVSDEECLKRVGLSGAPADACSTAQKAVGYICKCNGGRGAIREFAEHICLLMEKVNNSCQK [CMAS]”: the “solubility in G1/S (log2)” value with HeLa Kyoto [1] is -0.289. The thermal stability score with HeLa Kyoto [2] (setting [5]) is -0.251; in the data set on HeLa Kyoto [2] (cell cycle stage: mitosis) it was -0.391. Also, the “solubility change mitosis (log2)” value in the data set on HeLa Kyoto [3] was found to be 0.303. Further, the melting temperature stood at 50.8 °C in the data set on HeLa Kyoto [4] (cell cycle stage: G1/S) and 50 °C in the data set with HeLa Kyoto [4] (cell cycle stage: mitosis).
Regarding “MNSPGGRGKKKGSGGASNPVPPRPPPPCLAPAPPAAGPAPPPESPHKRNLYYFSYPLFVGFALLRLVAFHLGLLFVWLCQRFSRALMAAKRSSGAAPAPASASAPAPVPGGEAERVRVFHKQAFEYISIALRIDEDEKAGQKEQAVEWYKKGIEELEKGIAVIVTGQGEQCERARRLQAKMMTNLVMAKDRLQLLEKMQPVLPFSKSQTDVYNDSTNLACRNGHLQSESGAVPKRKDPLTHTSNSLPRSKTVMKTGSAGLSGHHRAPSYSGLSMVSGVKQGSGPAPTTHKGTPKTNRTNKPSTPTTATRKKKDLKNFRNVDSNLANLIMNEIVDNGTAVKFDDIAGQDLAKQALQEIVILPSLRPELFTGLRAPARGLLLFGPPGNGKTMLAKAVAAESNATFFNISAASLTSKYVGEGEKLVRALFAVARELQPSIIFIDEVDSLLCERREGEHDASRRLKTEFLIEFDGVQSAGDDRVLVMGATNRPQELDEAVLRRFIKRVYVSLPNEETRLLLLKNLLCKQGSPLTQKELAQLARMTDGYSGSDLTALAKDAALGPIRELKPEQVKNMSASEMRNIRLSDFTESLKKIKRSVSPQTLEAYIRWNKDFGDTTV [SPAST]”, the “solubility in G1/S (log2)” value in the data set with HeLa Kyoto [1] was found to be 0.427. Moreover, the thermal stability score in the data set with HeLa Kyoto [2] (setting [5]) amounted to 0.0551; in the data set on HeLa Kyoto [2] (cell cycle stage: mitosis), 1.16. For the same sequence, the “solubility change mitosis (log2)” value with HeLa Kyoto [3] is -0.012. In addition, the melting temperature in the data set on HeLa Kyoto [4] (cell cycle stage: G1/S) was determined as 48.8 °C; with HeLa Kyoto [4] (cell cycle stage: mitosis), 49.3 °C.
